# Reference: the nanobody polyreactivity screen of Harvey et al. (2022)
# Experiment: yeast display, Sf9 membrane polyspecificity reagent, FACS + sequencing; frameworks hold sequencing errors
# How it was run: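 In a synthetic yeast display library (Saccharomyces cerevisiae BJ5465), nanobody expression was induced with galactose for 36–48 hours. FACS gates were set low and high (top ~1%) using anti-HA fluorescence for expression and streptavidin fluorescence for binding of the Sf9 membrane reagent. Each polyreactivity label is drawn from the gate of origin.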
row,Sequence,polyreactivity (PSR sort gate)
1,QVQLVESGGGLVQAGGSLRLSCAASGRIFLVYVMGWYRQAPGKERELVADITFSGGSTYYADSVKGRFTISRDNAKNTVYLQMNSLKPEDTAVYYCAARKPRSGGPFDYWGQGTQVTVSS,high polyreactivity
2,QVQLVESGGGLVQAGGSLRLSCAASGRIFLWYAMGWYRQAPGKERELVAAISSNGGSTRYADSVKGRFTISRDNAKNTVYLQMNSLKPVDNAVYYCNADVHWNRYPYGGNGYGYWGQGTQVTVSS,low polyreactivity
3,QVQLVESGGGLVQAGGSLRLSCAASGRIFLWYAMGWYRQAPGKERELVAANSSNGGSTRYADSVKGRFTISRDNAKNTVYLQMNSLKPEDTAVYYCNADVHWNRYPYGGNGYGYWGQGTQVTVSS,low polyreactivity
4,QVQLVESGGGLVQAGGSLRLSCAASGRIFLWYTMGWYRQAPGKERELVASITRGGTTNYADSVKGRFTISRDNAKNTVYLQMNSLKPEDTAVYYFNVAYTWCQSTTSWYDIHYYWGQGSQVTVSS,high polyreactivity
5,QVQLVESGGGLVQAGGSLRLSCAASGRIFLYNAMGWYRQAPGKERELVAAISYNSGRTYYADSVKGRFTISRDNAKNTVYLQMNSLKPEDTAVYYCAAVSYPAVYGFDYWGQVTQVTVSS,high polyreactivity
6,QVQLVESGGGLVQAGGSLRLSCAASGRIFLYYAMGWYRQAPGKERELVAAIDSSGGNTNYADSVKGRFTISRDNAKNTVYFQMNSLKPEDTAVYYCAADFYVSADRWPNYDYWGQGTQVTVSS,low polyreactivity
7,QVQLVESGGGLVQAGGSLRLSCAASGRIFLYYAMGWYRQAPGKERELVAAITSDGSTNYADSVKGRFTISRDNAKNTVYLQMNSLKPEDTAVYYCARRIQTYHYHYDYWGQGTQVTVSS,low polyreactivity
8,QVQLVESGGGLVQAGGSLRLSCAASGRIFLYYTMGWYRQAPGKERELVAAITRSGGSTYYADSVKGRFTISRDNAKNTVYLQMISLKPEDTAVYYGADRYWERYRAFNYWGQGTQVTVSS,high polyreactivity
9,QVQLVESGGGLVQAGGSLRLSCAASGRIFNANAKGWYRQAPWKERELVAAITYSGGSTYYADSVKGRFTISRDNAKNTVYLQKNSLKPEDTAVYYCNVDYAGPYDYWGQGTQVTVSS,low polyreactivity
10,QVQLVESGGGLVQAGGSLRLSCAASGRIFNDYAMGWYRQAPGKERELVAVIRRSGVSTYYADSVKGRFTISRDNAKNTVYLQMNSLKPEDTAVYYCAADIRSNRLYDGGYWGQGTQVTVSS,low polyreactivity
11,QVQLVESGGGLVQAGGSLRLSCAASGRIFNFYAMGWYRQAPGKERELVASITSDGSTKYADSVKGRFTISRDNAKNTVYLKMNSLKPEDTAVFYCATDTWGSYYDDDDYWGQGTQVTVSS,high polyreactivity
12,QVQLVESGGGLVQAGGSLRLSCAASGRIFNGNAMVWYRQAPGKERELVASINVRGGRTYYADSVKGRFTISRDNAKNTVYLQMNSLKPEDTAVYYWYADYAWYQRKSTVDYDYWGQVTQVTVSS,low polyreactivity
13,QVQLVESGGGLVQAGGSLRLSCAASGRIFNGNDMGWYRQAPGKERELVAAISYSGGSTYYADSVKGRFTISRDNAKNTVYLQMNSLKPEDTAVYYCAALTIRVGSLGRDYWVQGTQVTVSS,low polyreactivity
14,QVQLVESGGGLVQAGGSLRLSCAASGRIFNLYAMGWYRPAPGKESELVAAISGSGGRTSYADSVKGRFTISRDNAKNTVYLQMNSLKPEDTAVYYCAADYSFYTSFRYDYWGQGTQVTVSS,low polyreactivity
15,QVQLVESGGGLVQAGGSLRLSCAASGRIFNPYAMGWYRQAPGKEREFVAAIRWSSGSTSYADSVKGRFTISRDNAKNTVYLQMNSLKPEDTAVYYCNTRSHSYYTLWGASRPRFDYWGQGTQVTVSS,high polyreactivity
16,QVQLVESGGGLVQAGGSLRLSCAASGRIFNQYAMGWYIQAPGKERELVAAISRRGGSTYYADSVKGRFTISRDNAKNTVYLQMNSLKPEDTAVYYCAAVGGYASYFHLYYYWGQGTQVTVSS,high polyreactivity
17,QVQLVESGGGLVQAGGSLRLSCAASGRIFNRNAMGWYRQAPGKERELVAAISRSGDNTYYADSVKGRFTISRDNAKNTVYLQMNSLKPEDTAVYYCAKDGSLDAQSYDYDYWGQGTQVTVSS,low polyreactivity
18,QVQLVESGGGLVQAGGSLRLSCAASGRIFNTYAMGWYRQAPGKERELVAAITSSGGSTYYADSVKGRFTISRDNAKNTVYFQMNSLKPEDTAVYYCNAGSLHRRYYYEGDYWGQGTQVTVSS,high polyreactivity
19,QVQLVESGGGLVQAGGSLRLSCAASGRIFNVYAMGWYRQAPGKERELVAAITYSGGSTYYADSVKVRITISRDNAKNSVYLQMIFLKPEDTAVYYCNARSSKRSSRGYDYWGQGTQVTVSS,high polyreactivity
20,QVQLVESGGGLVQAGGSLRLSCAASGRIFNWYRMGWYRQAPGKERELVAAISRGGGRTYYADSVKGRFTISRDNAKNTVYLQMNSLKPEDTAVYYCNAVDASHAGPVGGAFRYDYWGQGTQVTVSS,high polyreactivity
21,QVQLVESGGGLVQAGGSLRLSCAASGRIFNYNTMGWYRQAPGKERELVAAINFSGDRTYYADSVKGRFTISRDISKNTVYLQMNSLKPEDTAVYYCAAQGYWYGYQPGNYWGQGTQVTVSS,high polyreactivity

row,Sequence,polyreactivity (PSR sort gate)
1,QVQLVESGGGLVQAGGSLRLSCAASGRIFNYYAMGWYRQAPGKEREFVAAITSGGGSTYYADSVKGRFTISRDNAKNNVYLQMNSLKPEDTAVYYCNARLQSQVDAIGYGYWGQGTQVTVSS,high polyreactivity
2,QVQLVESGGGLVQAGGSLRLSCAASGRIFNYYAMGWYRQAPGKERELVAAISSGGSTYYADSVKGRFTISRDNAKNTVYLQMNSLKPEDTAVYYCAAAYGDYGYWGQGTQVTVSS,high polyreactivity
3,QVQLVESGGGLVQAGGSLRLSCAASGRIFNYYAMGWYRQAPGKERELVAVISRTGVRTHYADSVKGRFTISRDIAKNTVYLQMNRLKPEDTAVDYCNADSYVFRYDYWGQGSQVTVSS,high polyreactivity
4,QVQLVESGGGLVQAGGSLRLSCAASGRIFNYYAMGWYRQAPGTERELVAAISTDGGSTYYADSVKGRFTISRDNAKNSVYLQMNSLKPEDTAVYYCAAYQYYDFSYSYDYWGQGTQVTVSS,low polyreactivity
5,QVQLVESGGGLVQAGGSLRLSCAASGRIFNYYDMGWYRQAPGKERELVAAISSGGTTYYADSVKGRFTISRDNAKNTVYLQMNCLKREDTAVYFCASYYTPQRLRSGKFDYWGQGTQVTVST,high polyreactivity
6,QVQLVESGGGLVQAGGSLRLSCAASGRIFPANAMGWYRQAPGKERELVAGITWRGDSTYYADSVKGRFTISRDNAKNTVYLQMNSLKPEDTAVYYCAATFRYTKLYYWGHGTQVTVSS,low polyreactivity
7,QVQLVESGGGLVQAGGSLRLSCAASGRIFPANVMGWYRQAPGKERELVATIDNGGGTYYADSVKGRFTISRDNAKNTVYLQMNSLKPEDTAVYYCARDRHVRWGLKMDYWGQGTQVTVSS,low polyreactivity
8,QVQLVESGGGLVQAGGSLRLSCAASGRIFPAYVMGWYRQAPGKERQLVATIDNGGGTYFADSVKGRFTISRDNAKNTVYLQMNRLKPVETAVYYCARDRHVRWGLNMDYWGQGTQVTVSS,low polyreactivity
9,QVQLVESGGGLVQAGGSLRLSCAASGRIFPDNTMGGYRQAPGKERELVAVITYSGGSTYYADSVKGRFTISRDNAKNTVYLKMNSLKPEDTAVYYCAARDYYIWFAEVYYWGQGTQVSVSS,low polyreactivity
10,QVQLVESGGGLVQAGGSLRLSCAASGRIFPEYAMGWYRQAPGKERELVAAITSGGHYADSVKGRFTISRDNAKNTVYLQINSLKPEDTAVYYCSALNVYGSADVTTLEMDYWGQGTLVTVSS,low polyreactivity
11,QVQLVESGGGLVQAGGSLRLSCAASGRIFPFNDMGWYREAPGKEREFVADISDNGGSTYADSVKGRFTISRDNAKNTVYLQMNSLKPEDTAVYYCNAVYTSYRGGYYYWGQGTQGTVSS,low polyreactivity
12,QVQLVESGGGLVQAGGSLRLSCAASGRIFPFYAMGWYRQAPGKERELVAAISTRGGSTYYADSVKGRFTISRDNAKNTVYLQMNSLKPADTAVYYCAADVQAVGYDYWGQGTQVTVSS,high polyreactivity
13,QVQLVESGGGLVQAGGSLRLSCAASGRIFPGYAMGWYRQAPGKERELVAAISSRGGSTYYADSVKGRFTISRDNAKHTVYLQMNSLKPEDTAVYYCAAEPSWWNVFYPGYNYWGQGTQVTVSS,high polyreactivity
14,QVQLVESGGGLVQAGGSLRLSCAASGRIFPGYAMGWYRQAPGKERELVAAISTNGGRTYYADSVKGRFTISRDNAKNTVYLQMNSLKPEDTAVYYCNAARAVYTQKRFDSWGQGTQVTVSS,high polyreactivity
15,QVQLVESGGGLVQAGGSLRLSCAASGRIFPHNAMGWYRQAPGKERELVAAITKSGDDTYYADSVKGRFTISRDNAKNTVYLQMNSLKPEDTAVYYCAAYLSWYDYWGQGTQVTVSS,low polyreactivity
16,QVQLVESGGGLVQAGGSLRLSCAASGRIFPINAMGWYRQAPGKERELVAAISGDGGDTYYADSVKGRFTISRDNAKNTVYLQMNSLKPEDTAVYYCAADALGYDYYYWGQGTQVTVSS,low polyreactivity
17,QVQLVESGGGLVQAGGSLRLSCAASGRIFPINVMGWYRQAPGKERELVAAISGRGGSTYYADSVKGRFTISRDNAKNTVYLQMNSLKPEDTAVYYCAARSPYRYYYWGQGTQVTVSS,high polyreactivity
18,QVQLVESGGGLVQAGGSLRLSCAASGRIFPKYAMGWYRHAPGTERELVGAISGSSGSTYYADSVKGRFTISRDNAKNTVYLQMNSLKPDDTAVYYCAARRYRISKTSGYCGQGTQVTVSS,high polyreactivity
19,QVQLVESGGGLVQAGGSLRLSCAASGRIFPKYAMGWYRQAPGKERELVAAITGIGTSTYYADSVKGRFTISRDNAKNTVYLQMNSLKPEDTAVYYCAADTWTIVDYGYWGQGTQVTVSS,low polyreactivity
20,QVQLVESGGGLVQAGGSLRLSCAASGRIFPLYAMGWSRQAPGKERELVAAITSSGGSTYYADSVKGRFTISRDNAKNTVYLQMNSLKPEDTAVYYCAADYSVYWLDYGYWGQGTLVTVSS,low polyreactivity
